Laboratory results taken from publication PMC6469509.

Tests used:
[1] = target: T1, NLRX1 FL recombinant (human, UniProt Q86UT6 1-975); assay: pull-down
[2] = target: T2, NLRC3 FL recombinant (human, UniProt Q7RTR2 1-1065); assay: pull-down
T2 sequence: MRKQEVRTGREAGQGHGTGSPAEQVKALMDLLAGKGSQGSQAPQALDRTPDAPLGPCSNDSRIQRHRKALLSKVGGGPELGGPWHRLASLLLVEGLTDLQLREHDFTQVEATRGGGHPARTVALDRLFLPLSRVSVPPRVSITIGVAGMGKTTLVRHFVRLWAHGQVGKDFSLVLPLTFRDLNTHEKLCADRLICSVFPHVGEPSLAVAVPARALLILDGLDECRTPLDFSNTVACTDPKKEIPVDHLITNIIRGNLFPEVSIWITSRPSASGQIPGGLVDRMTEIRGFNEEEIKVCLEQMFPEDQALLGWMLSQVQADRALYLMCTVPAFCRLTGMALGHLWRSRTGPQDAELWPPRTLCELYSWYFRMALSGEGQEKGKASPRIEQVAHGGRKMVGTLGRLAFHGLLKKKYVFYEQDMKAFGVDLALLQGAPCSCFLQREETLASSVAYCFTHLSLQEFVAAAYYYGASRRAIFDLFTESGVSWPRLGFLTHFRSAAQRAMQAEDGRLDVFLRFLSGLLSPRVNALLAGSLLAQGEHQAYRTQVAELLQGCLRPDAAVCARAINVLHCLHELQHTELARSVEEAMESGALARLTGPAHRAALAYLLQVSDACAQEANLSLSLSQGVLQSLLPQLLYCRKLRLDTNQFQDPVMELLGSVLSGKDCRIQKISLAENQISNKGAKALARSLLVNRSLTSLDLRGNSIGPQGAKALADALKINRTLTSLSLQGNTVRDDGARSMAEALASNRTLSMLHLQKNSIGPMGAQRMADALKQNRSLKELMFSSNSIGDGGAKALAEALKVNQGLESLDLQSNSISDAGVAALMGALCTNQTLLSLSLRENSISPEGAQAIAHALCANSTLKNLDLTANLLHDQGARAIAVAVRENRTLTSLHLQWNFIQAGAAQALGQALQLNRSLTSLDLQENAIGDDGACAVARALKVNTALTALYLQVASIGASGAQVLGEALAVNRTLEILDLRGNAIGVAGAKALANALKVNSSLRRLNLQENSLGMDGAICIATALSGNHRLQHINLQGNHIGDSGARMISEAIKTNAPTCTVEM

[3] = target: T3, STING 155-341 (human, UniProt Q86WV6 155-341); assay: SPR
T3 sequence (Q86WV6 155-341): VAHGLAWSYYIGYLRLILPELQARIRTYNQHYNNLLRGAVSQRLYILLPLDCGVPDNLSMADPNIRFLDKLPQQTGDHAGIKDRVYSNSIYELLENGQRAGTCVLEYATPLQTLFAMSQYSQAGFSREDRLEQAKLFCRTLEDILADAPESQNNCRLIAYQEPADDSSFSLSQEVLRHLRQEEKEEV

[4] = target: T2, NLRC3 FL recombinant; assay: SPR
[5] = target: T4, NLRC3 NBD recombinant (human, UniProt Q7RTR2 139-460); assay: pull-down
T4 sequence: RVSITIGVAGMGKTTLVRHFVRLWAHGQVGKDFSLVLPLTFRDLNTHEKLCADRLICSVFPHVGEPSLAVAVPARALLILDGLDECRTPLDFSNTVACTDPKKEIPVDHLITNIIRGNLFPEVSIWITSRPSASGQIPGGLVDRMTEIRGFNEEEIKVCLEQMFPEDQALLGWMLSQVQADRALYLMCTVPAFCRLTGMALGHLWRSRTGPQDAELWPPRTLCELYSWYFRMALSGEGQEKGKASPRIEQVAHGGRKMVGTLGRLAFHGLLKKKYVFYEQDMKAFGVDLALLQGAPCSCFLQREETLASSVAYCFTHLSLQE

[6] = target: T1, NLRX1 FL recombinant; assay: EMSA
[7] = target: cGAS FL recombinant (mouse, UniProt Q8C6L5 1-507); assay: EMSA
Chain of cGAS FL recombinant (Q8C6L5 whole entry): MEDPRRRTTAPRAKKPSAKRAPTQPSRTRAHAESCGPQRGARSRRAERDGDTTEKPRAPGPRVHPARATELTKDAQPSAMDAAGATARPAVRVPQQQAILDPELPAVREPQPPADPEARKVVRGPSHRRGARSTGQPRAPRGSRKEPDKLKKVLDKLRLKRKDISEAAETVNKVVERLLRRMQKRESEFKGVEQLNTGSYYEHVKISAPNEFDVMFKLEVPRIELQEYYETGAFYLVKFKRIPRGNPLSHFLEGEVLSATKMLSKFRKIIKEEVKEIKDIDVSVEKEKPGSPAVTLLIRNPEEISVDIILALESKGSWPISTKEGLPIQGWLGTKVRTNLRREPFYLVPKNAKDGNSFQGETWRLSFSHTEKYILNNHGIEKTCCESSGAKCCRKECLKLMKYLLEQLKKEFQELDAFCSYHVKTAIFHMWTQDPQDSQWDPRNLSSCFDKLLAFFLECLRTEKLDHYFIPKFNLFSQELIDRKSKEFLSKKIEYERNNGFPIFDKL

[8] = target: T3, STING 155-341; assay: gel filtration
[9] = target: T1, NLRX1 FL recombinant; assay: SPR

T1 sequence (Q86UT6 whole entry): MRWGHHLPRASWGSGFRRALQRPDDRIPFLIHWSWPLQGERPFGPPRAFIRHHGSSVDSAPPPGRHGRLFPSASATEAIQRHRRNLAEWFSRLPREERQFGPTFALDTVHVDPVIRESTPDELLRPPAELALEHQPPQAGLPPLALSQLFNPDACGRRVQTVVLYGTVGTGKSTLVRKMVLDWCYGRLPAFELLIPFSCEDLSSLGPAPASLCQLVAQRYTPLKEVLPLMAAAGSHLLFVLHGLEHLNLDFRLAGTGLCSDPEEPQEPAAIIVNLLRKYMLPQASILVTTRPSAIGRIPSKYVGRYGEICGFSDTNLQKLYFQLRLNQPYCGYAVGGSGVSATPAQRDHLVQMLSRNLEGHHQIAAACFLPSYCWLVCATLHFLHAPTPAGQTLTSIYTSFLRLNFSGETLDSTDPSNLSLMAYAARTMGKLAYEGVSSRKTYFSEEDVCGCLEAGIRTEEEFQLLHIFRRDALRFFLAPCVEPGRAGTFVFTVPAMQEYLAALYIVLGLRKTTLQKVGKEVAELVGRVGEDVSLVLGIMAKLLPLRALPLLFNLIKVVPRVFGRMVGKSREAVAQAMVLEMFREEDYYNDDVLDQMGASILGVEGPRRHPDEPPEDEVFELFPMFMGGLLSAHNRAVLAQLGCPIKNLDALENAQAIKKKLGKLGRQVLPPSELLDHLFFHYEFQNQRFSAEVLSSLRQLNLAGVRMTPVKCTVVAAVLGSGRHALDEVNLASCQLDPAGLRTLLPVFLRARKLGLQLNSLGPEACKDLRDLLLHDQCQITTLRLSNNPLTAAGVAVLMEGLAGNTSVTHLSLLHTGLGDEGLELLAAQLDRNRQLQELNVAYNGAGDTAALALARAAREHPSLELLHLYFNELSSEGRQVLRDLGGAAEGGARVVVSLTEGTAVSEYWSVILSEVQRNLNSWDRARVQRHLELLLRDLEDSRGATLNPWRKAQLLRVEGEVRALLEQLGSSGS

B1: HSV-15 dsDNA (dsDNA)
DNA 1: TAAGACACGATGCGA
DNA 2: TCGCATCGTGTCTTA
Q: Does B1 bind [1]?
A: Result: no binding

Q: Does B1 bind [2]?
A: Result: binds

B2: HSV-60 dsDNA (dsDNA)
DNA 1: TAAGACACGATGCGATAAAATCTGTTTGTAAAATTTATTAAGGGTACAAATTGCCCTAGC
DNA 2: GCTAGGGCAATTTGTACCCTTAATAAATTTTACAAACAGATTTTATCGCATCGTGTCTTA
Q: Does B2 bind [3]?
A: Result: no binding

Q: What about the Kd [4] of the same binder?
A: Its Kd is 3 nM.

Q: Does B2 bind [5]?
A: Result: no binding

Q: Does B2 bind [6]?
A: Result: no binding

Q: Does B2 bind [7]?
A: Result: binds

B3: HSV-60 dsDNA unlabelled (dsDNA)
DNA 1: B2 DNA 1
DNA 2: B2 DNA 2
Q: Does B3 bind [8]?
A: Result: no binding

B4: HSV-60 ssDNA (ssDNA)
DNA: B2 DNA 1
Q: Does B4 bind [4]?
A: Result: binds

B5: HSV-60 DNA-RNA hybrid (DNA:RNA)
DNA: B2 DNA 1
RNA: GCUAGGGCAAUUUGUACCCUUAAUAAAUUUUACAAACAGAUUUUAUCGCAUCGUGUCUUA
Q: Does B5 bind [4]?
A: Result: binds

B6: HSV-60 dsRNA (dsRNA)
RNA 1: UAAGACACGAUGCGAUAAAAUCUGUUUGUAAAAUUUAUUAAGGGUACAAAUUGCCCUAGC
RNA 2: B5 RNA
Q: Does B6 bind [9]?
A: Result: binds
